{"source": "the DeepSol protein solubility set", "data": [{"test": "soluble on expression in E. coli; label from the status in PepcDB or PDB records", "values": [{"sequence": "MGSDKIHHHHHHMKKLHGFENEYLFVLPPVILNNFNFSKVIKLLYITDLGFYPKARYHFVHRDRGTEEWILIFCTHGKGVVKSATEEWLIESGSIVLLPPGKEHTYYAFDDDPWDIFWAHFNGDSVNEYIPQEALQGNGFLVINKTSTEDMQMLMSQFWQMIQALSAGFSYQSVFYSSQVLGATLAYVSLQSVLPHDSYTMGNEYITKAVKYIYDHFEEKVSLSTLTEVLDVSKSYLSRIFRQTVGTSVNQFILDIKMKQACYYLKDTNLAVHQIASRLGYDDPYYFSRIFKKVVGSSPRVFRKQEKNRL", "soluble on expression in E. coli": "not soluble"}, {"sequence": "MAHHHHHHMSARKFAGEYVSRHLDGLTVLASLADRPAAAKPVICTHNGSFHCDEAMACGLLRHVPEYREAVILRTRDPKQIDACDIVVDVGAIYDADTNRYDHHQASFHGTMTTPKKAYKTRLSSAGLVYKHFGRQIICEYVEAVLQPSSPARAAVLSMTSWSESRTGLSEAELDVLEDALYAHFVEQVDGIDNGVECWGLADPAVGTLVPNYTQSTSLSQRIGQLQAYWNEPENGDVVAENANFAVAVEMAVTEFFKALTYLSFSWLPARSIVEAAFQRRHEFDESGKIMVFKGVKACPWKDHLLELEAESNCLGAVLYVVFSDGKGWRVQAVPKTSTSFENRKPLPYRGLRDDALSAACGIEGGVFVHVSGFIGGMKTFDGAMALAKQALVVVN", "soluble on expression in E. coli": "soluble"}, {"sequence": "STMPLAELGARLYREKACFSCHSIDGSRLVGPSFKGLYGSTRTFEDGTTAVADENYLRESILQPGAKVVQGYPNVMPASYASLSEREVAALIEFIKQQQ", "soluble on expression in E. coli": "soluble"}, {"sequence": "MEKSYMKHELWGDGDFQEDDVWDVLDGYQSPFMISSNHTTKPSFSTQTLLPSEPRMIPERQRTEGMAPMRQQSVPVNVPDWSMVQRKKTKKVVDDENVSPEEYFLRRSRSSSSSSVMEGVGRKLKGRDLSKVRNAILKQTGFLE", "soluble on expression in E. coli": "soluble"}, {"sequence": "MGYVGIKIRLTDVAPQAQELFKKESLDVKENKVYLVAATLRPETMYGQTCCFVSPKIDYGVFDAGNGDYFITTERAFKNMSFQNLTPKRGYYKPLFTINGKTLIGSRIDAPYAVNKNLRVLPMETVLATKGTGVVTCVPSDSPDDFVTTRDLANKPEYYGIEKDWVQTDIVPIVHTEKYGDKCAEFLVNDLKIQSPKDSVQLANAKELAYKEGFYNGTMLIGKYKGDKVEDAKPKVKQDLIDEGLAFVYNEPELEHHHHHH", "soluble on expression in E. coli": "soluble"}, {"sequence": "MSELIRVPDIGNGEGEVIELLVKPGDKVEADQSLLTLESDKASMEIPSPKAGVVKSIKAKVGDTLKEGDEILELEVEGGEQPAEAKAEAAPAQPEAPKAEAPAPAPSESKPAAPAAASVQDIKVPDIGSAGKANVIEVMVKAGDTVEADQSLITLESDKASMEIPSPASGVVESVSIKVGDEVGTGDLILKLKVEGAA", "soluble on expression in E. coli": "not soluble"}, {"sequence": "MGSDKIHHHHHHMITVNDMSMQFSDRKLYSDVNLKFTPGNCYGIIGANGAGKSTFLKILEGKLQPTSGNVSISPNERMSSLNQDHYAFEEFTVMNTVIQGYKKLYEVMQAKDALYAKADFTEEDGMKAANLEAEFAEMDGWNAEAEASQLLQQLGIDESLHDSKMSELTEGQRIKVLLGQALFGKPDILILDEPTNGLDPKSISWLEDFLADFPNTVIVVSHDRHFLNSVCTMMCDVDFGKIELFVGNYDFWMESSALAKRLRENANAKKEEQIKELQEFVARFSANASKSKQATSRKKQLDKITLDDIKPSSRKYPFIRFEPARELGNDLVRVDKVSKSIDGVKILDNITFTVRPGEKAAILSQNDLATTVLMQILAGEMEPDSGSVTWGQTTERSYIPRDINSYFEDDRFDILEWLRQYAPKEESDNTFLRGFLGKMLFSGEDVLKNVTKLSGGEKVRCMISKTMLSKANVLILDDPTNHLDLESITALNEGLTSYKSSIIMTSHDHEFIQTIADHIIEVSDKGSVDRAETTYDEFLNHDAIQEQVSKLY", "soluble on expression in E. coli": "not soluble"}, {"sequence": "MTRNAPPGQESTDLAWLVTPAKDLVENFSIDVLKALAGYLEVIRQESEDTDNQVDAATTYRLFDFQRACRIIQGSCAVYGRKVDHVYELTISVVDLVENKGQDDGNTGSRRGAGRRKNFNLGSTNYDLADIDSLKQEALANFEKTVKEEKKSIDAVRMVENAEVIESQYERKSCLVAKPTQFMFKLNYGQLNRTDEQILNAKSRPDVIGKVKDFEIKKSKVKHDQQILYSHDCYRGNLDQFTLPGARWMPDNKELAANFGVADLEVELDLEQEHEKISAYGPFKDPLSGREVVPPPRWFIEQEAVRQNQEIQSRATSRAITIAAKTLRDSQGFGSQPTRLSQPFVERHRQSNHLNDFLSFVEGRVNKNRPSTHLTTGLVDMFVDNFGSVMQNDEPNTSRRPDENYAPMDFDDDFGGGGDDDDDDYIRNLSRRDEKRAPAPWDELDKNHIIWYTGDENLPVVSKPVKKITKFQPKPAEMLARKQRREEKINKSRRDEFMETHDYLQDYYYWRSAARINPIKDWKIESLRTAILAEKKRRIKEKTAKIREARIQNMQRKRTARVIPVEQFEPVTEDIPTSNRRTLGAEYDDVVDEDLAAEVELSMFGGGFDDDEEDVRPRGERPPMAPNNLEFDALQTDFDIPPAEYVPLRFEDIDDAELNSVINLPGNLLIDKALPLLKKFAENRTDREQMAYEMAKAYEDVDVAVSTLQEHVDKWHSRMEPILEEGETRKEYDVHAVGRAVIGQYDIEGGTKRLLDLVMDRPWYEISRYFLSCLFMCNVGNVMVSEDMELPLEERINSMKITLLKRDMHCEMFKEAGALDA", "soluble on expression in E. coli": "not soluble"}, {"sequence": "MNKQRLITELQSKGLRLVDPNAKDLGRKGGAGPSDHRAVTVDGTTVMVPIYTSTAAASPYSINLASMPPKTVLSKGDEEIAAIALPRQPKFYDLKTADGIPYSHIALLHSNNVLATTVQQTCIRYRDESTVCQFCAIEKSLDAGRTITRKLPEQLAEVTEAAVRLDGIEQVIMTTGTPNSGDRGAAYLTKCAAAIKARVNIPIQAQCEPPDDFIWFERMKAAGVDSLGMHLEAVDPDVRAKIMPGKAEVPVSYYYEAYEAAVKVFGWGQVSTYLLAGLGDSFETLVEASEKLVNMGVYPFVVPFVPISETPLANHPAPDSDFMFALYQRVGTIIKQSQISSVDMKAGCAKCGACSALSTFAKLEHHHHHH", "soluble on expression in E. coli": "not soluble"}, {"sequence": "MELAYVDAKKEEFDTLDKNHDGKVSLAEYEEHFHEASSKNEKSRTAYFAKVFEDFDEDFNMALSREELERVLAERFLVKPRENFPKLFFKFDVDKSGGLDLTEYMKFDAEFPFDQTDPVGGGPSKSNNHHDQMHTEVPQDADAAAIAAVLAQASPTLNKSPVGVAPPQTSPGLHPVAPGLFQTAVPIKKV", "soluble on expression in E. coli": "soluble"}, {"sequence": "MAHHHHHHMSAGSDARIYRCTFIKKEAVKKVIYRKYYRHKKIDTKIRKLRVSNEIKFTKKLASLNIDVPYIYFVDAKEKSLYFEYVKGCTINFILKNLKEYEPKIPICVGMVLAKIHNGNIIHGDYTTSNLILRNSFIQQNNLLDLKNNNSPYNFSDLENVKLCVIDFGLSFLSSSIEDKAVDLFVLLKTIKSFHSEFPSLEEDILEGYKMKSDNVNDIFTKLEIVKQRGRKRPMVG", "soluble on expression in E. coli": "not soluble"}, {"sequence": "MITISNEDNMILMSRYPDKYFDLAIVDPPYGILNKTKRGGDYKFNMNEYSQWDIKPDQTYFNELFRVSKNQIIWGGNYFGELWLRSEYNKGFIIWDKNQPETLNNFSMAEMAWSSFDRPSKIFRFSVRKNRNKTHPTQKPVELYQWLLKMYAKQGDKILDTHLGSGTLAIACCIAQFDLTACEINSDYYQQSIEKIKNNLPEARISFGHPGYCIIE", "soluble on expression in E. coli": "not soluble"}, {"sequence": "MTTLKVKQLANKKGLNILEDSIEINESGVDFQVAHVTEQNGDKWILRIPRRPESMRHALREKEALEIMKKHAAFQVPNWSIFSEELIAYKQLSGFPAATIDIEQQKYVWNFNEKNVPTEYYISLGKVLANVHSLSQQKFNNIGVEILTANELRTSMKQRMNRVKEQYHINQNLWDRWQAWLAEDSFWPSHVGVKHGDIHPGHILIDKKNNVTGLIDWTEVGIGDVSIDFTSHYLLFGKDGLTKLIHSYDNAGGKTWSRMDEHIIELLTTSSITVAEYAQVSGLKDMHEAAIHMLATEC", "soluble on expression in E. coli": "not soluble"}, {"sequence": "MVQDQIRYDILVQDALRGVIRKVLSEVAKAGLPGSHHFFITFLTNAPGVKISTRLKSRYPEQMTIVLQHQFRDLNVSETAFEVTLSFREVSEKLVIPFHSIQVFYDPVAAFEAAFDLPSNLNSKEGENLENIASTPVILSDTQKKEKKFPKEQISKTNKDSSNNDTKQSADVVSLDSFRKK", "soluble on expression in E. coli": "not soluble"}, {"sequence": "SPLDRDPAFRVITVTKETGLGLKILGGINRNEGPLVYIHEVIPGGDCYKDGRLKPGDQLVSINKESMIGVSFEEAKSIITRAKLRSESPWEIAFIR", "soluble on expression in E. coli": "soluble"}, {"sequence": "PPLVANQVVTCPDKKSTAAVILTPTENHFTLKCPKTALTEPPTLAYSPNRQICPAGTTSSCTSKAVTLSSLIPEAEDSWWTGDSASLDTAGIKLTVPIEKFPVTTQTFVVGCIKGDDAQSCMVTVTVQARASSVVNNVARCSYGADSTLGPVKLSAEGPTTMTLVCGKDGVKVPQDNNQYCSGTTLTGCNEKSFKDILPKLTENPWQGNASSDKGATLTIKKEAFPAESKSVIIGCTGGSPEKHHCTVKLEFAG", "soluble on expression in E. coli": "soluble"}, {"sequence": "MSLVPARVFSCTILVDFQTEDQDTMCNLLRVQWTITPRTAPQPWLACNGCGDLRAFQASDKIRLNANGRKLDAWLIYRCLICDKSWNRPIFERQNVCDISPPVLEALQCNDPQWIRAETFNLEALRRKSQRIDEFPDFDIEKRIRDEPTDWAAAEIDLTVPFPASIRLDRLLASELGLSRSMLQKLHDGGQIRAQSDLLRRRLRNGTRIVIECGDGLDRERFWKPAVRGLEGHHHHHH", "soluble on expression in E. coli": "not soluble"}, {"sequence": "MSSETLEFSGCNFFRIRLAYSILSGRPIRIINIRKNDDRPGIRDFESKLIGLLEKVTNGTKVEISRTGTQVIFRPGMITGGVVNLDCGTERCISYFLEPLLLLSPFCKVPMVIKLKGVTNAPGEISVDGMKASWLKVYNKFVLNDEKLDIKIQARGLKPEGGGVVVFTAPIVKTLRPVKRQQVGKVCKIRGQAYVTKVTPSLAYRMIDAAKKAMHGYISDVYITVDQRKGDAGGASPGYGLFLTAETTEGVIYQAEAISRPKGESGVPILPEDIGIEAGHALLQQIYMGGALDSSAQILASTFMTLCPKDVSHFLYGPLPMYSVHALRHLKQFFEIEFKMEDFKKTLKEEEADLKTGSADKAMVTAVGVGYSNLNKTIL", "soluble on expression in E. coli": "not soluble"}, {"sequence": "PVLTQTSEQAPSSAPRDVQARMLSSTTILVQWKEPEEPNGQIQGYRVYYTMDPTQHVNNWMKHNVADSQITTIGNLVPQKTYSVKVLAFTSIGDGPLSSDIQVITQTG", "soluble on expression in E. coli": "soluble"}, {"sequence": "MISEGCEQCAKGGKMVLFVYGYCDQRDCFYCPLGENRKNVTQMYANERPIEDDADVIEEAKRMSALGTSITGGEPQEVLDRTCHYLELLKDEFGEDHHTHLYTGIPGGRENMRRLSEAGLDEIRFHPPLEQWGDLHGTEWEDILYIAREEGLTPAFEIPGIRAEEEFLEFLDEGAADFCNINEFEMSDGNYRRMQEEGFELKEDHMSAVEGSHDILEKMGDHEKVYFCTSVFKDAAQHRSRLKRMARNIRRPFDDVTDDGTLVYGKAWTSEARLETLGVPEEYYTVKSEHVELAWWLLEEMVEEGDVEKGEIVEQYPTYDGTVVERTPLSNGADAGRATADD", "soluble on expression in E. coli": "not soluble"}, {"sequence": "MVKKEFHLTHTFKNVSKLEDGKTLYGPEEEHFNIPWQLSFCRKEEFVGVFLRCLRPTDGIVPWEINADCILKLTSSAGKCLSHSSTYIFQSIGGFGRRKFVSWDTLVKDHLVNDSIIMEATVMITKMTGISKKKLRSFEKSEEQFSDVVLAVEDKKFFVLRKFLASHSSYFKSLLLGTFAEADKSEIKHEAINSIDFQNFLEVLYGEPVIDDDDVEGILHLAHMYDVPVAIRKCEEFLIEKSEKSMRDQLEIAKKYQLDNLKKSCLSKVNTVEEIKAALMCDLADMDPTVVAALFRKSLALL", "soluble on expression in E. coli": "not soluble"}]}]}
